This passage reports protein production results from a protein production outcome set (Wang et al. 2014).
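Also: failed if final PepcDB status was selected cloned or expressed and not failed if soluble or beyond.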

This data set is described as follows: label from the status in PepcDB records.
“MRKGLIRNGSYSILLVIYRWFCWAIVLIGIIPVNGVISLAYAATPADWNKGAYAYSAEQTPLSAILADFANSHGVDLVLGNIADNEVTAKIRADNPTLFLDRLALEHRFQWFVYNNALYVSPQDEQASVRLEISPDAAPDIKQALSGIGLIDSRFGWGELPEEGVVLVTGPKAYIDLIRNFSQQREKQDERRKVMIFPLRYASVSDRTLQYRDQKITIPGVATILNELMDGQRAAPAGASGPMPVQPDTGMEAMRDSTRSLMTRLATRTSPGRSGEASSRVTLSGKISADVRNNALLIRDDEKRRAEYQQLVEHIDVPQNLVNIDAIILDVDRTALSRLEANWQAQLGNVSAGSTMMMGRSTLFVSDFKRFFADIQALEGEGTASIVANPSVLTLENQPAIVDFSRTAFITATGERVADIQPVTAGTSLQVTPRVIGEGAQRSIQLVIDIEDGQVETGREGEASGVKRGTVSTQALIGENRALVLGGFHVEESGDRDRRIPILGDIPLLGKLFTSTRHEVSRRERLFILTPHLVGDQTDPTRYVSSVNRQQLNGAMNRVAQRNGKTDLYSLIEGAFRDLASRQLPAGFQADSKGARLGEVCRSQSGLIYDSSRYQWYGNGQVRLSVGVVRNGGTQPQRFDEAACASSRTLAVAVWPKTTLAPGESSEVFLALQPALTAQPTRRNVLISN”: the protein production result is “failed”.

Consider “MRETGSRPSRSGERRLSWLWLAMAASLVFAVFAVRPPSRIDNVLYDVLTRANAHPADDSILIVDIDDRSLARMGAWPWGRDTHARMVDQLTQAGAKTIVYDVLFSQPSRDPAQDRALGEAIARSGRVYLPEFLIDGGEQAPPRVVGSISEIARGAAGVGLAHVRFDDDGVVRRMAPFEANGPSLKPDLMTVVHRATRPPGSPDVTRGNEQTLLISFAGPPSIYRHASFASVLDGEVPRELIAGRTVFVGLTAPGLGPAFPTPVTPDAASMTGVQLQASVLDALRSGRMITPAGPWSRVGFSLTLLWLLMIGFMALPPRANLLLTIGLCLVGLAYSAALFWLGHIWLSPITTVIGLQLVALIWGWGRLGQVNDLIGRELARVRAVVRGRGAKPAAFSGDVVTRQASSLGDAITRMDDLRRFSADALFSLPDATLVANEQGRVIAANAAAQALFKPHQATLNGASLADLINLLDPLGRRFELDWPQATDRHDPIDLHLPDGRAFQLQTVLRRDEHGGPAGWIVRLADISILTAAMRQREQALQLLTHDMRSPQTSILALLATTPDLPKETADRIAAYARRTLALADGFVQLARAEVTPVSLEPLDLADVAVEAIDEVWPQSLQRKIRIEQVGGEAPLMVLGDRSVLARTFVNLLGNALKYSPSGSTITVNLAEQPSPSGPVACIAIADQGPGFSREEAATAFRPFQRFERPGHELASNGVGLGLAFVQAAVARHGGEVSCRSEPGVGAEFTVRLPRHGVVQGG”, for which the protein production entry was “failed”.

For the sequence “MTVAYIAIGSNLASPLEQVNAALKALGDIPESHILTVSSFYRTPPLGPQDQPDYLNAAVALETSLAPEELLNHTQRIELQQGRVRKAERWGPRTLDLDIMLFGNEVINTERLTVPHYDMKNRGFMLWPLFEIAPELVFPDGEMLRQILHTRAFDKLNKW”, the protein production result is given as “failed”.

For the sequence “SSPFPIPNTQYPISNPQFNRWLVPMAGGPNARIAIKLLPALVTLSDDPQIRLTRVFKPWEFRPDMTVLEQAIRQLMRRRQLSSTVIAAPVQADSVVEGVIKLVETEGYDVVVLGASREGLLQQAIQGNIPEAIASGVDSTVILVR”, the protein production entry was “failed”.

Take “MYKLDHLNHNTLDESSLELHETPKGYTNVALFGLDSRDGELSGGVRSDSIMIVSINNKTGDVKIISVYRDTLLKQQDGSYEKANAAYSFGGPQEAVAMLNRNLDLDITKYASVNFNSLADIIDILGGVEVELTSEEIFWLNGYTAETSQVVGRQTHTLDENSPGVHNLDGIQAVSYTRIRYTAGDDFKRAERQRIILQKMIQKLKTAGPVKWNKILDQVLPEISTNMTTPDIMKLGLNIFRYKIGETKGFPFDITTSENVIGLEGSYAVAIGHADNVRQLHEQLFGETGYQPSDEVQQISQDVAYLTGVLEHHHHHH”: the protein production result was “not failed”.

For the sequence “MKYADISHFSHPQHNLKFDYTEKPFKCDGCNEVGIGSRYRCSGDNHGSCDFDLHAHCALPSASITHPFYKKCTFQFVARPPGNERRYCNACEKDVSGFLYHCKACGFDLHPCCAMLPMVLDDGETNLFLYRKVSSSCHRCGKKGRSWSYRSLFLILFLFFHYYDTKD”, the protein production result was “failed”.

As to “RHLVKVPCRIGASHTTGRLILPTLLANLSAVSDRFDFQVTLANSAEILTAMSQHKLDFGLVEKPLVTDQLNRLPFGHDELVHAGDFASPLWLLREPNSGVRHYTNAFLKARNIQPAQVMVIHSNQII”, the protein production result was “failed”.

For “MSYGLIIVLMIILGIGLWHTKKYHRAVVNQVAHVWITKNAFEHTALGMAIVSPDCRFLKVNRAYGEITGYTRPELLKMAVKELTHPEDQEKDTPYLQEVFAGNIHSFTTVKRYIHKNGSTIWVRSTISAVRTERGNLKYFVAQIQDMTIAKNAEDELRKSRDNAEVLARTDYLTKTLNRRAFIERLQEELERTKRTQEGFAMILVDIDYFKKVNDQFGHLAGDYVLQKFADCLSNNVRPYDFIGRYGGEEFIICLPDTDVEQAALVAERMRESVEALEVDYLHAQIKVTGSFGVAVYDSHSSDTLDELIEKADGAMYVAKNHKNTVYQWVS”, the protein production result was “failed”.

“PSGFPQNLHVTGLTTSTTELAWDPPVLAERNGRIISYTVVFRDINSQQELQNITTDTRFTLTGLKPDTTYDIKVRAWTSKGSGPLSPSIQSRTMPV”: the protein production result was “not failed”.

In the case of “MRPAVIAATGLYTPPDSVSNAELVEAFNTYVANFNAANKARIEAGEIEPLQPSSSEFIEKASGIKSRYVVAKPGIVDPDVMRPIIPERSNDELSILAEMAVTAAEQAIERWGKPRERIGAVLCACSNMQRAYPAMAIEVQNALGLGGFAFDMNVACSSATFGLKTAADFVGGGSVDAVLMVNPEICSGHLNFRDRDSHFIFGDVATAAIVERADDAQGGWS”, the protein production entry is on record as “failed”.

As for “EFYCEVLLLDESKLTLTTQQQGIKKSTKGSVVLDHVFHHVNLVEIDYFGLRYCDRSHQTYWLDPAKTLAEHKELINTGPPYTLYFGIK”, the protein production result is given as “failed”.

In the case of “MIFSSPSQKNHPVGGLEEVMAQGTFVQALRKEAALSSTFMKGRSLMLNGAVLSIEDSGSRFSKNVTLEGAVRGSRGDLYKTHVALDMDEHEVIDYDCDCPAAYRYPGMCKHAIATALAYLDASGIEPVEGLRTPVRTFTAAPKQAARPSSAAPAVNPNFPFPAPVPTSPSLMKALSDLSDARMDELAGMRRKLAGTVDPDAPKAVLEPSLVPYYNPLFADRFSWALELRIRCGSVSYVVKDIDGMAAAYVRGGTFSYGKKLTFLHAPEAFDEVSVRLLDLVVATVVYLSDITSSRSASYDFARSGFVAERQLPLSEHDIVYMLDLLRGRTISFEPAWSRGTTTHRSYEVAVELSPVGEDEASAKQPPLLAAKIAPAAGGSYDLRLPADTYCFVAGDAAYLVDTHRARRADAAFAQHAAPFLSRLLPCRTPVHIAAEQVGEFCRMALPVLREYTGLTAPAVLDTVAPEPSFAMAIGVDDGLVTCKITVSYGDWSADLFSLGAPGSPFEERRPGVPPRDEMAEFRVMDTAALYFDFYEGGLAFEERDDESLFHLLTEGLSALSELGEVMLSDRLRQVSVRPAPKLSVRATVKSNLLDVELGASGLSAADLAIYLDSYKRHQTFARLTSGDIIRLDEGARAAFGLAEDLGVDAVDLLDGVSLPASSTLFVDSMLARTPELEADRDAAFRRTVERLDTLGKMDFTVPVSLKATLRGYQVDGYQWLGSLEHLGLGGILADDMGLGKTLQMIAHILARVEAGDAKPTLVVCPASLVYNWTAELERFAPSLDVCAIVGAKAQRRVQIAGADEHNVVITSYDLMRRDIDEYAEQDFARVVLDEAQYIKNPLTQVAHAAKRLPAGVRFALTGTPIENRLSELWSIFDFLMPGLLGSRESFAKRFESPVEHAEGDSAARLQALVSPFVLRRVKEDVVADLPEKIEDTVMAQLTGEQRKLYLANQDRIAQQVQHREVSEFKKDKLKVLAELTKLRQICCDPHLHYEDYKAGSAKLDACMELVHGALDGGHHILLFSQFTGMLDIIGKRLAKEDIGFLKLTGASSKESRAKMVAQFQAGEVPVFLISLKAGGVGLNLTAADVVIHYDPWWNVAAQDQATDRAHRIGQQHTVTVYKLIAKDTIEERIMRMQESKRDLVNSVLGGDGISSALFTREDVLALLGGDGR”, the protein production entry is “failed”.

Take “MLTVKQRETDCPMDLNTLISQYGYAALVIGSLAEGETVTLLGGVAAHQGLLKFPLVVLSVALGGMIGDQVLYLCGRRFGGKLLRRFSKHQDKIERAQKLIQRHPYLFVIGTRFMYGFRVIGPTLIGASQLPPKIFLPLNILGAFAWALIFTTIGYAGGQVIAPWLHNLDQHLKHWVWLILVVVLVVGVRWWLKRSGKKKPDHQA”: the protein production result is reported as “failed”.

For “MMNKPAPRELEVIRSTYITPHMLRITLGGAGLAGFPADQESAYIKLLFPQAGERPLMRTYTIRQQRDDEIDVDFVLHDTDGPASSWAKTAQVGELIQIGGPGLKKLINFEADWFLLAGDMTALPAISVNLAKLPNNAVGYAVIEVLSEADIQPLVHPEHVELHWVINPEADPEGRPLVERIAQLPWLAGEPAVWIACEFNSMRALRRHFKQAHALPKSHFYTSSYWKIGCNEGEHKLVKQEDEQLENGASV”, the protein production entry was “not failed”.

Consider “MKGKVVSYLAAKKYGFIQGDDGESYFLHFSELLDKKDEGKLVKGSMVHFDPTPTPKGLAAKAISLPLEHHHHHH”, for which the protein production result is “not failed”.

As to “GSFQYVPVQLQGGAPWGFTLKGGLEHCEPLTVSKIEDGGKAALSQKMRTGDELVNINGTPLYGSRQEALILIKGSFRILKLIVRRRN”, the protein production entry was “not failed”.

As to “MVTSSQVMLMPAHDSAKPTGFGIMVTSLDLLRDHQKVIHTLWFIDDVVARELGGFDGFCRRERVLLLFVDSTNTTLSFTRNDMTCVPRQGGADSDHWLFKRHLALLLPLSFAQVYEGFISFYEEEDKHISWDIKSCSSSSHQ”, the protein production result is reported as “failed”.

Regarding “MKAIITVVGKDKSGIVAGVSGKIAELGLNIDDISQTVLDEYFTMMAVVSSDEKQDFTYLRNEFEAFGQTLNVKINIQSAAIFEAMYNI”, the protein production result was “not failed”.

Turning to “MTVWFVAAVAVLIIELLTGTVYLLVVSAALAGSGIAYGLTGSTPAAVLTAALLSALGIWFVHAKTAVGKVETDSYQDLDTGKYAEILRYTGGNRYEVFYRGTHWQAQNTGQEVFEPGTRALIVRKEGNLLIIANP”, the protein production result is reported as “failed”.

As for “MRTILFKSVPFSKEAVTLALESGVDGIIVPEKHVAPVQALARCKVLCDDAVCTLELTAKADEEEAASRLAAGEDVVLARGWEIIPVENLLARSDRVTVEVASLDEARLAAGILERGVSTVVVLPQAVTELKAIVQELKLSQGRIDLAPAVVTAVRPVGLGHRVCVDTMSLLRTGQGMLVGNSSAFTFLVNAETEHNEYVAARPFRINAGAVHAYAVMPGDRTTYLEELRSGSEVLIVGADGATTIATVGRLKVEVRPMLLVEARVGDTVGAVFLQNAETIRLVRADGTPVSVVALREGDEVLCRTDVAGRHFGMRITEDIREA”, the protein production entry is listed as “failed”.

For the sequence “MQLNQTNTPFNEEQLALINQLLPMLTPEQQHWLSGYLLNPATTSVSDNKTDIQENEAGITETETSTSTDQSVSEPVSASTEPLDVHVLYGTETGNAEEIAETFETKLKSQNLNVHLWDMDDFPRDSLPEVEHLFIICSTQGVGEPPINALDLYDYLHGDDAPQLDQVNFAVLALGDQDFPDFCQAGKDFDYILGQLGANRVADRVDCDFDYEETAEQWITNMLELLTQASSNTNEETPSVENEDVTIEEPQAPYSKSNPFQAEVLKNTILTQPEASREVRHLEISLEGYREAYEPGDSLVVIPQNDPVLVNQLIDALNWDAETPIQMNDSDSMRSLKEALTHDFEIAKLTPVLMKNAAELLGNPMLNANIQKSEWVQNYIYGKDVIDLIRDFTPVALEPNMLPQLLRKLPPREYSIASSNKVNPNSVHITVRVVKYEAHRRERFGVCSVQLADRTSVGDKLPVYLKKNPNFKFPYDTETPVIMIGAGTGIAPYRAYLQERAYLNLKGEQWLIFGNQNYHHDFLYKDDLEQWLEEGVLSKLDLAFSRETENKIYVQHRIEENSAEFYKWIQAGATIYLCGNKDEMASGVHESLIKVLIKEGNLDETEAEAYLTEMIKNQRYQRDVY”, the protein production result is recorded as “failed”.
